{
  "source": "IntAct's records for PubMed 10376594",
  "parents": {"B1": {"name": "Apoptotic protease-activating factor 1 (Homo sapiens), O14727 (parent)", "chain": "MDAKARNCLLQHREALEKDIKTSYIMDHMISDGFLTISEEEKVRNEPTQQQRAAMLIKMILKKDNDSYVSFYNALLHEGYKDLAALLHDGIPVVSSSSGKDSVSGITSYVRTVLCEGGVPQRPVVFVTRKKLVNAIQQKLSKLKGEPGWVTIHGMAGCGKSVLAAEAVRDHSLLEGCFPGGVHWVSVGKQDKSGLLMKLQNLCTRLDQDESFSQRLPLNIEEAKDRLRILMLRKHPRSLLILDDVWDSWVLKAFDSQCQILLTTRDKSVTDSVMGPKYVVPVESSLGKEKGLEILSLFVNMKKADLPEQAHSIIKECKGSPLVVSLIGALLRDFPNRWEYYLKQLQNKQFKRIRKSSSYDYEALDEAMSISVEMLREDIKDYYTDLSILQKDVKVPTKVLCILWDMETEEVEDILQEFVNKSLLFCDRNGKSFRYYLHDLQVDFLTEKNCSQLQDLHKKIITQFQRYHQPHTLSPDQEDCMYWYNFLAYHMASAKMHKELCALMFSLDWIKAKTELVGPAHLIHEFVEYRHILDEKDCAVSENFQEFLSLNGHLLGRQPFPNIVQLGLCEPETSEVYQQAKLQAKQEVDNGMLYLEWINKKNITNLSRLVVRPHTDAVYHACFSEDGQRIASCGADKTLQVFKAETGEKLLEIKAHEDEVLCCAFSTDDRFIATCSVDKKVKIWNSMTGELVHTYDEHSEQVNCCHFTNSSHHLLLATGSSDCFLKLWDLNQKECRNTMFGHTNSVNHCRFSPDDKLLASCSADGTLKLWDATSANERKSINVKQFFLNLEDPQEDMEVIVKCCSWSADGARIMVAAKNKIFLFDIHTSGLLGEIHTGHHSTIQYCDFSPQNHLAVVALSQYCVELWNTDSRSKVADCRGHLSWVHGVMFSPDGSSFLTSSDDQTIRLWETKKVCKNSAVMLKQEVDVVFQENEVMVLAVDHIRRLQLINGRTGQIDYLTEAQVSCCCLSPHLQYIAFGDENGAIEILELVNNRIFQSRFQHKKTVWHIQFTADEKTLISSSDDAEIQVWNWQLDKCIFLRGHQETVKDFRLLKNSRLLSWSFDGTVKVWNIITGNKEKDFVCHQGTVLSCDISHDATKFSSTSADKTAKIWSFDLLLPLHELRGHNGCVRCSAFSVDSTLLATGDDNGEIRIWNVSNGELLHLCAPLSEEGAATHGGWVTDLCFSPDGKMLISAGGYIKWWNVVTGESSQTFYTNGTNLKKIHVSPDFKTYVTVDNLGILYILQTLE"}, "B2": {"name": "Caspase-9 (Homo sapiens), P55211 (parent)", "chain": "MDEADRRLLRRCRLRLVEELQVDQLWDALLSRELFRPHMIEDIQRAGSGSRRDQARQLIIDLETRGSQALPLFISCLEDTGQDMLASFLRTNRQAAKLSKPTLENLTPVVLRPEIRKPEVLRPETPRPVDIGSGGFGDVGALESLRGNADLAYILSMEPCGHCLIINNVNFCRESGLRTRTGSNIDCEKLRRRFSSLHFMVEVKGDLTAKKMVLALLELAQQDHGALDCCVVVILSHGCQASHLQFPGAVYGTDGCPVSVEKIVNIFNGTSCPSLGGKPKLFFIQACGGEQKDHGFEVASTSPEDESPGSNPEPDATPFQEGLRTFDQLDAISSLPTPSDIFVSYSTFPGFVSWRDPKSGSWYVETLDDIFEQWAHSEDLQSLLLRVANAVSVKGIYKQMPGCFNFLRKKLFFKTS"}},
  "data": [
    {"variants_of": "B1", "conditions": "with casp9_human CASP9, P55211", "values": [
      {"variant": "S31A", "effect of a mutation on the interaction": "decreasing interaction"},
      {"variant": "D27A", "effect of a mutation on the interaction": "disrupting interaction"},
      {"variant": "E40A", "effect of a mutation on the interaction": "disrupting interaction"}
    ]},
    {"variants_of": "B2", "conditions": "with apaf_human APAF1, O14727", "values": [
      {"variant": "MDEADRRLLRRCRLRLVEELQVDQLWDALLSRELFRPHMIEDIQRAGSGSRADQARQLIIDLETRGSQALPLFISCLEDTGQDMLASFLRTNRQAAKLSKPTLENLTPVVLRPEIRKPEVLRPETPRPVDIGSGGFGDVGALESLRGNADLAYILSMEPCGHCLIINNVNFCRESGLRTRTGSNIDCEKLRRRFSSLHFMVEVKGDLTAKKMVLALLELAQQDHGALDCCVVVILSHGCQASHLQFPGAVYGTDGCPVSVEKIVNIFNGTSCPSLGGKPKLFFIQACGGEQKDHGFEVASTSPEDESPGSNPEPDATPFQEGLRTFDQLDAISSLPTPSDIFVSYSTFPGFVSWRDPKSGSWYVETLDDIFEQWAHSEDLQSLLLRVANAVSVKGIYKQMPGCFNFLRKKLFFKTS", "note": "[R52A]", "effect of a mutation on the interaction": "decreasing interaction"},
      {"variant": "MDEADRRLLRRCRLRLVEELQVDQLWDALLSRELFRPHMIEDIQRAGSGSRRDQAAQLIIDLETRGSQALPLFISCLEDTGQDMLASFLRTNRQAAKLSKPTLENLTPVVLRPEIRKPEVLRPETPRPVDIGSGGFGDVGALESLRGNADLAYILSMEPCGHCLIINNVNFCRESGLRTRTGSNIDCEKLRRRFSSLHFMVEVKGDLTAKKMVLALLELAQQDHGALDCCVVVILSHGCQASHLQFPGAVYGTDGCPVSVEKIVNIFNGTSCPSLGGKPKLFFIQACGGEQKDHGFEVASTSPEDESPGSNPEPDATPFQEGLRTFDQLDAISSLPTPSDIFVSYSTFPGFVSWRDPKSGSWYVETLDDIFEQWAHSEDLQSLLLRVANAVSVKGIYKQMPGCFNFLRKKLFFKTS", "note": "[R56A]", "effect of a mutation on the interaction": "disrupting interaction"},
      {"variant": "MDEADRRLLRACRLRLVEELQVDQLWDALLSRELFRPHMIEDIQRAGSGSRRDQARQLIIDLETRGSQALPLFISCLEDTGQDMLASFLRTNRQAAKLSKPTLENLTPVVLRPEIRKPEVLRPETPRPVDIGSGGFGDVGALESLRGNADLAYILSMEPCGHCLIINNVNFCRESGLRTRTGSNIDCEKLRRRFSSLHFMVEVKGDLTAKKMVLALLELAQQDHGALDCCVVVILSHGCQASHLQFPGAVYGTDGCPVSVEKIVNIFNGTSCPSLGGKPKLFFIQACGGEQKDHGFEVASTSPEDESPGSNPEPDATPFQEGLRTFDQLDAISSLPTPSDIFVSYSTFPGFVSWRDPKSGSWYVETLDDIFEQWAHSEDLQSLLLRVANAVSVKGIYKQMPGCFNFLRKKLFFKTS", "note": "[R11A]", "effect of a mutation on the interaction": "decreasing interaction"},
      {"variant": "MDEADRRLLRRCALRLVEELQVDQLWDALLSRELFRPHMIEDIQRAGSGSRRDQARQLIIDLETRGSQALPLFISCLEDTGQDMLASFLRTNRQAAKLSKPTLENLTPVVLRPEIRKPEVLRPETPRPVDIGSGGFGDVGALESLRGNADLAYILSMEPCGHCLIINNVNFCRESGLRTRTGSNIDCEKLRRRFSSLHFMVEVKGDLTAKKMVLALLELAQQDHGALDCCVVVILSHGCQASHLQFPGAVYGTDGCPVSVEKIVNIFNGTSCPSLGGKPKLFFIQACGGEQKDHGFEVASTSPEDESPGSNPEPDATPFQEGLRTFDQLDAISSLPTPSDIFVSYSTFPGFVSWRDPKSGSWYVETLDDIFEQWAHSEDLQSLLLRVANAVSVKGIYKQMPGCFNFLRKKLFFKTS", "note": "[R13A]", "effect of a mutation on the interaction": "disrupting interaction"}
    ]}
  ]
}
